± gives the half width of the 95% confidence interval.
Experiments:
[1] = folding stability dG unfold from trypsin proteolysis; higher = more stable
Procedure, shortened: (§1)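 Designed mini-proteins with no cysteine and under 80 residues were kept only if AlphaFold2 dimer inter-PAE was above 15. In a PA-tagged cDNA display construct, they were digested with trypsin and chymotrypsin and then sequenced. K50 was inferred by Bayesian fitting of counts, and unfolding free energy was derived per protease or combined against a sequence-predicted unfolded-state K50 and a shared folded-state K50.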

[2] = folding stability dG unfold (combined trypsin and chymotrypsin); higher = more stable
Procedure, shortened: as §1

[3] = folding stability dG unfold from chymotrypsin proteolysis; higher = more stable
Procedure, shortened: as §1

Row | Sequence | folding stability dG unfold [1] | folding stability dG unfold [2] | folding stability dG unfold [3]
1 | SAGGSAGGSAGGGPEDRVVPLFFEFDLPEDVVLEVPSDADVFVFRLPDRTLMVLLVDERESAGGSAGGSAGG [r7_584_TrMRF] | 1.82 ± 0.051 kcal/mol | 2.51 ± 0.057 kcal/mol | 2.88 ± 0.023 kcal/mol
2 | SAGGSAGGSAGGGPSSMVTVETKEELLTLPNGEKLIKTTTTTKTPTATTTTTTVLPAELLSAGGSAGGSAGG [r7_682_JUSTAS] | 0.0664 ± 0.063 kcal/mol | 0.515 ± 0.2 kcal/mol | 0.561 ± 0.068 kcal/mol
3 | SAGGSAGGSAGGGSMESVVLNVPIYEKTPDGSWRLVKELPILVPVDASPEVVEKKRKELSAGGSAGGSAGGS [r10_470_JUSTAS] | -0.41 ± 0.13 kcal/mol | -0.481 ± 0.17 kcal/mol | -0.822 ± 0.68 kcal/mol
4 | SAGGSAGGSAGGGSMVTVPVTTESTTTVPPGAPAVEAAPVDPATATVSTTTSSTSLVASSAGGSAGGSAGGS [r10_82_JUSTAS] | 1.22 ± 0.081 kcal/mol | 0.862 ± 0.092 kcal/mol | 0.534 ± 0.029 kcal/mol
5 | SAGGSAGGSAGGGSPIPTTTLTTVTYGSSSSLLSSAKGPSSVPYSLPSSLGSSVSTTVVGSAGGSAGGSAGG [r7_141_JUSTAS] | -0.911 ± 0.3 kcal/mol | -0.34 ± 0.38 kcal/mol | -0.13 ± 0.29 kcal/mol
6 | SAGGSAGGSAGGGSSMITLERESEPGETFEFNFPGVSEVTVTEVIPGDGKVTVKVEVTSPSAGGSAGGSAGG [r7_292_JUSTAS] | 0.782 ± 0.059 kcal/mol | 0.537 ± 0.11 kcal/mol | 0.0882 ± 0.09 kcal/mol
7 | SAGGSAGGSAGGGSSVITTTETDPANGLLTTTTTTINGSETVPSSTVSPVPPPPPPSTLSAGGSAGGSAGGS [r10_354_JUSTAS] | 1.67 ± 0.14 kcal/mol | 1.11 ± 0.12 kcal/mol | 0.0312 ± 0.094 kcal/mol
8 | SAGGSAGGSAGGGSVTIEIEFEAKPGEKFTVTIKGFKKVEITEIYPFDGKVRIKVKVTPESAGGSAGGSAGG [r7_292_TrMRF] | 3.18 ± 0.13 kcal/mol | 3.67 ± 0.13 kcal/mol | 3.88 ± 0.13 kcal/mol
9 | SAGGSAGGSAGGGVAFSSDTTETRIDTTDDDTIVITTTTYAPNPSSTTTTVTTVPPDVPLSAGGSAGGSAGG [r7_128_JUSTAS] | 1.24 ± 0.044 kcal/mol | 0.75 ± 0.14 kcal/mol | 0.0059 ± 0.23 kcal/mol
10 | SAGGSAGGSAGGGYIEIDSVHLHPDGTVTRTRAVLEVDENGNVRVLSAETETVPLDDILGSAGGSAGGSAGG [r7_521_TrMRF] | 2.28 ± 0.14 kcal/mol | 2.38 ± 0.12 kcal/mol | 2.32 ± 0.043 kcal/mol
11 | SAGGSAGGSAGGHMVMITITIPIKKGAEIKFGDWDIKVPPGEQIQITIMIPVPPPDDDKSAGGSAGGSAGGS [r10_949_TrROS] | 2.91 ± 0.16 kcal/mol | 2.79 ± 0.3 kcal/mol | 2.8 ± 0.21 kcal/mol
12 | SAGGSAGGSAGGIAEALKAAFPDEGVEVVSIHPDGKVEVRVDGTPELREKVEKAVKELLSSAGGSAGGSAGG [r11_418_TrMRF] | 1.08 ± 0.087 kcal/mol | 0.798 ± 0.18 kcal/mol | 0.621 ± 0.067 kcal/mol
13 | SAGGSAGGSAGGIEDMAEKNPDWKIVEPIEIEIPYYNPDGKWYEVEYTIFVIVPPGDEISAGGSAGGSAGGS [r10_0_TrROS] | 1.46 ± 0.16 kcal/mol | 1.79 ± 0.23 kcal/mol | 2.12 ± 0.075 kcal/mol
14 | SAGGSAGGSAGGIGEGTPIERLIEGKPIPFYVDESTGKAYYTLPEDKKIETTIEDPEKVSAGGSAGGSAGGS [r10_1185_TrMRF] | -0.377 ± 0.19 kcal/mol | 0.202 ± 0.15 kcal/mol | 0.442 ± 0.22 kcal/mol
15 | SAGGSAGGSAGGIKKGDKIKIVKVKVEKRYDKDGKLVEERIVSIEEEEIEVPSLEDLLKASAGGSAGGSAGG [r7_439_TrROS_Hall] | 0.732 ± 0.14 kcal/mol | 0.654 ± 0.25 kcal/mol | 0.739 ± 0.06 kcal/mol
16 | SAGGSAGGSAGGIKPGEKPVYKVKIYNEETGEELEVEFKTLEELEKLKIPGVKKIEVEKVSAGGSAGGSAGG [r7_793_TrROS_Hall] | 0.786 ± 0.16 kcal/mol | 1.2 ± 0.2 kcal/mol | 1.35 ± 0.045 kcal/mol
17 | SAGGSAGGSAGGISPSANVKLVAVDPERGLVVAVAKDPNSGSVSVVVFDANGNSSILPASAGGSAGGSAGGS [r10_450_TrMRF] | -0.317 ± 0.079 kcal/mol | 0.267 ± 0.043 kcal/mol | 0.495 ± 0.029 kcal/mol
18 | SAGGSAGGSAGGITPEYVERARKEAQDQYPPGKEREIIIRNPDNGKEITIRYTPDKIEIMSAGGSAGGSAGG [r7_45_TrROS] | 0.0182 ± 0.12 kcal/mol | -0.147 ± 0.24 kcal/mol | -0.289 ± 0.16 kcal/mol
19 | SAGGSAGGSAGGKAKIVDVKIEKEGNTVTIEVKIEVDGKLIATAKVRFTGPDGKLEIEIESAGGSAGGSAGG [r7_133_TrROS_Hall] | 3.25 ± 0.16 kcal/mol | 3.15 ± 0.15 kcal/mol | 2.9 ± 0.27 kcal/mol
20 | SAGGSAGGSAGGKDPYLALKTVRVRLVRDYLLGDKPVKTELIEEADVPVLIVFEPEELLSAGGSAGGSAGGS [r10_492_TrMRF] | 0.0714 ± 0.069 kcal/mol | 0.441 ± 0.053 kcal/mol | 0.536 ± 0.086 kcal/mol
21 | SAGGSAGGSAGGKDVRITVSPNNMRISIWKRDPNDGKWKPIGTIPMPPNDPDKALDQLKSAGGSAGGSAGGS [r10_275_TrROS] | -0.216 ± 0.18 kcal/mol | -0.446 ± 0.18 kcal/mol | -1.13 ± 0.91 kcal/mol

From the supplement of paper PMC12764529
